Key:
[1] = system: EL-4 target cells; assay: Anti-tumour CTL and/or NK cell cytolytic activity of splenocytes against EL-4 target cells; conditions: Example 1; splenocytes at day 42; vs control diet
Description: Splenocytes were harvested 28 days following tumour cell injection, as specified. They were incubated at 37° C. with EL-4 target cells in graded E:T ratios in 96-well round-bottom plates. After a 4-hour incubation, 50 μl of supernatant was collected, and lysis was measured using the Cyto Tox 96 Assay Kit (Promega, Madison, Wis., USA). Background controls for non-specific target and effector cell lysis were included. After background subtraction, percentage of cell lysis was calculated using the formula: 100× (experimental-spontaneous effector-spontaneous target/maximum target-spontaneous target).

[2] = system: IL-18; assay: IL-18 production by cultured intestinal loops; type: cell-based, mice; conditions: Example 20; 400 and 800 μg/ml; 48 h; vs bovine serum albumin control protein
Description: Cytokine levels in the supernatants of homogenates of the small intestine were determined using a “sandwich” ELISA kit (Endogen, Woburn, Mass.). They were detected within standard curve ranges of 15-375 pg/ml for IL-4, 0-2450 pg/ml for IL-5, 15-1000 pg/ml for TNF-α, 0-3000 pg/ml for IFN-γ, 37-3000 pg/ml for IL-10, 31.3-2000 pg/ml for IL-12, and 31.3-2000 pg/ml for IL-18, respectively. Quantification of nitrite, indicative of NO production, was carried out by the Griess reaction (Sigma, USA). The results are expressed as the mean nitrite concentration (μM)±SD.
100% Fe-saturated Lf, natural Lf (less than 20% iron saturated), and bovine serum albumin control were added at 400 and 800 μg/ml to intestinal loops (2.5 cm segments of the small intestine) prepared from healthy 6 to 7 week-old female mice, which were kept in culture for 48 h. IL-18 levels released by the intestinal loops, and present in the supernatants of homogenates of the small intestine were determined using a “sandwich” ELISA kit as described above.

[3] = system: EL-4 tumours; assay: EL-4 tumour growth in mice (s.c. flank tumour model); type: in vivo, C57BL/6 mice; conditions: Example 1; oral diet; day 42; vs control diet
[4] = system: IL-18; conditions: WO 03/099323, cited from earlier work

Row | Molecule | anti-tumour CTL and/or NK cell activity of splenocytes [1] | increase in the levels of IL-18 in the intestine [2] [fold] | inhibition in tumour size [3] [%] | serum levels of IL-18 [4] | intestinal IL-18 levels ([4]; compared with recombinant human lactoferrin)
1 | natural bLf: bovine lactoferrin extract from skim milk with natural levels of iron-saturation of approximately 5 to 15% (protein, UniProt P24627 20-708, looked up) Lactotransferrin: APRKNVRWCTISQPEWFKCRRWQWRMKKLGAPSITCVRRAFALECIRAIAEKKADAVTLDGGMVFEAGRDPYKLRPVAAEIYGTKESPQTHYYAVAVVKKGSNFQLDQLQGRKSCHTGLGRSAGWIIPMGILRPYLSWTESLEPLQGAVAKFFSASCVPCIDRQAYPNLCQLCKGEGENQCACSSREPYFGYSGAFKCLQDGAGDVAFVKETTVFENLPEKADRDQYELLCLNNSRAPVDAFKECHLAQVPSHAVVARSVDGKEDLIWKLLSKAQEKFGKNKSRSFQLFGSPPGQRDLLFKDSALGFLRIPSKVDSALYLGSRYLTTLKNLRETAEEVKARYTRVVWCAVGPEEQKKCQQWSQQSGQNVTCATASTTDDCIVLVLKGEADALNLDGGYIYTAGKCGLVPVLAENRKSSKHSSLDCVLRPTEGYLAVAVVKKANEGLTWNSLKDKKSCHTAVDRTAGWNIPMGLIVNQTGSCAFDEFFSQSCAPGADPKSRLCALCAGDDQGLDKCVPNSKEKYYGYTGAFRCLAEDVGDVAFVKNDTVWENTNGESTADWAKNLNREDFRLLCLDGTRKPVTEAQSCHLAVAPNHAVVSRSDRAAHVKQVLLHQQALFGKNGKNCPDKFCLFKSETKNLLFNDNTECLAKLGGRPTYEEYLGTEYVTAIANLKKCSTSPLLEACAFLTR | slightly enhanced | ~2 | 11 | – | –
2 | bovine lactoferrin: bovine lactoferrin as reported in WO 03/099323, compared with recombinant human lactoferrin (protein, Bovine Lactoferrin, bovine lactoferrin as reported in WO 03/099323, compared with recombinant human lactoferrin) APRKNVRWCTISQPEWFKCRRWQWRMKKLGAPSITCVRRAFALECIRAIAEKKADAVTLDGGMVFEAGRDPYKLRPVAAEIYGTKESPQTHYYAVAVVKKGSNFQLDQLQGRKSCHTGLGRSAGWIIPMGILRPYLSWTESLEPLQGAVAKFFSASCVPCIDRQAYPNLCQLCKGEGENQCACSSREPYFGYSGAFKCLQDGAGDVAFVKETTVFENLPEKADRDQYELLCLNNSRAPVDAFKECHLAQVPSHAVVARSVDGKEDLIWKLLSKAQEKFGKNKSRSFQLFGSPPGQRDLLFKDSALGFLRIPSKVDSALYLGSRYLTTLKNLRETAEEVKARYTRVVWCAVGPEEQKKCQQWSQQSGQNVTCATASTTDDCIVLVLKGEADALNLDGGYIYTAGKCGLVPVLAENRKSSKHSSLDCVLRPTEGYLAVAVVKKANEGLTWNSLKDKKSCHTAVDRTAGWNIPMGLIVNQTGSCAFDEFFSQSCAPGADPKSRLCALCAGDDQGLDKCVPNSKEKYYGYTGAFRCLAEDVGDVAFVKNDTVWENTNGESTADWAKNLNREDFRLLCLDGTRKPVTEAQSCHLAVAPNHAVVSRSDRAAHVKQVLLHQQALFGKNGKNCPDKFCLFKSETKNLLFNDNTECLAKLGGRPTYEEYLGTEYVTAIANLKKCSTSPLLEACAFLTR | – | – | – | did not increase | lesser increase

— US20090202574A1, “METHODS OF IMMUNE OR HAEMATOLOGICAL ENHANCEMENT, INHIBITING TUMOUR FORMATION OR GROWTH, AND TREATING OR PREVENTING CANCER” (priority 2004, published 2009)
